Assay in all cases: crystal structure
In experiment [1] the target is Mycobacterium tuberculosis class II fructose-1,6-bisphosphatase (GlpX protein), T84A variant (Mycobacterium tuberculosis) (UniProt P9WN21).
In experiment [2] the target is Mycobacterium tuberculosis class II fructose-1,6-bisphosphatase (GlpX protein), T84S variant (Mycobacterium tuberculosis) (UniProt P9WN21).
Experiment [3] addresses Mycobacterium tuberculosis class II fructose-1,6-bisphosphatase (GlpX protein), wild type (Mycobacterium tuberculosis) (UniProt P9WN21).

With “Mycobacterium tuberculosis class II fructose-1,6-bisphosphatase (GlpX protein), T84A variant (from UniProt P9WN21) (enzyme)”, the stoichiometry N in experiment [1] was 4. “Mycobacterium tuberculosis class II fructose-1,6-bisphosphatase (GlpX protein), T84S variant (from UniProt P9WN21) (enzyme)” yielded a stoichiometry N in experiment [2] of 4. In the case of “Mycobacterium tuberculosis class II fructose-1,6-bisphosphatase (GlpX protein), wild type (from UniProt P9WN21 35-362) (enzyme)”, the stoichiometry N in experiment [3] is 4.

The record behind these values is paper PMC5892879, “Structures of the Mycobacterium tuberculosis GlpX protein (class II fructose-1,6-bisphosphatase): implications for the active oligomeric state, catalytic mechanism and citrate inhibition” (Acta Crystallographica. Section D, Structural Biology, 2018).
